Experimental data from PMC4908164.

Assays:
[1] = target: cytochrome c peroxidase (Saccharomyces cerevisiae) (UniProt P00431); conditions: cited from earlier work
[2] = target: Yeast cytochrome c peroxidase C128A with MSKT as the first four N-terminal residues (yeast) (UniProt P00431); test: paramagnetic relaxation enhancement NMR; intermolecular PRE: 200 uM [15N,2H] CcP WT (C128A) with 200 uM unlabelled MTSL- or MTS-tagged N38C, N200C or T288C CcP; 20 mM NaPi, 100 mM NaCl, pH 6.0, 293 K; fraction bound and KD estimated from PRE-driven ensemble docking with an assumed correlation time of 45 ns

Sequence of cytochrome c (P00044 2-109): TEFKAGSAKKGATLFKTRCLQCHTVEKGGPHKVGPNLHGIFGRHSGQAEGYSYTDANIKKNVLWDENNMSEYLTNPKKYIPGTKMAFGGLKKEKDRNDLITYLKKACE

Kd [2] [µM]	fraction bound [2]	Substance	Kd [1] [µM]
		cytochrome c (from UniProt P00044)	5
360	0.4	Yeast cytochrome c peroxidase C128A N38C tagged with MTSL (or diamagnetic MTS) at C38 (from UniProt P00431 71-361) (enzyme)	
360	0.4	Yeast cytochrome c peroxidase C128A T288C tagged with MTSL (or diamagnetic MTS) at C288 (from UniProt P00431 71-361) (enzyme)	
360	0.4	Yeast cytochrome c peroxidase C128A N200C tagged with MTSL (or diamagnetic MTS) at C200 (from UniProt P00431 71-361) (enzyme)	
